Entries after “also recorded” stand apart in the source; their conditions may differ. Marks after values point to notes of the source that are not given here.
How the values were obtained:
BALb/c mice = assay: Mouse tail bleeding time; type: in vivo; conditions: tail transected after 10 min
Procedure: After 10 min, the distal tip 1.5 mm of the mouse tail was transected and the blood oozed was soaked with filter paper very 30 seconds until the bleeding stops. The bleeding time was defined as the time elapsed from the tail transection to the stoppage of bleeding.

SD rats [1] = assay: Rat inferior vena cava (venous) thrombosis; type: in vivo; conditions: for Thrombosis rate: rats with thrombus / rats, 4 hours after ligation
Procedure: 40 SPF grade male SD rats (provided by the laboratory animal center of Guangdong Medical College, 300-350 g body weight) were randomly divided into saline group, and rNAPTin-1 low-dose (100 μg·kg^−1), middle-dose (1 mg·kg^−1), high dose group (5 mg·kg^−1), 10 rats each group, respectively. These rats were anaesthetized with 10% chloral hydrate (250 mg/kg) by intraperitoneal injection. […] The abdominal cavity was reopened after 4 hours, and the ligated segment was opened longitudinally to check for whether there is thrombus.

SD rats [2] = assay: Rat carotid artery thrombosis (FeCl3); type: in vivo; conditions: for Inhibition rate %: vs model group
Procedure: 50 SPF grade male SD rats (provided by the laboratory animal center of Guangdong Medical College, 300-350 g body weight) were randomly divided into sham operation group (except without the FeCl3, the remaining steps with other groups), model group, and rNAPTin-1 low dose (100 μg·kg^−1), middle dose (1 mg·kg^−1), high dose group (5 mg·kg^−1), 10 rats each group, respectively. These rats were anaesthetized with 10% chloral hydrate (250 mg/kg) by intraperitoneal injection. The right carotid artery was isolated by making a midline cervical incision followed by blunt dissection to expose a 1 cm segment of the vessel from the carotid sheath, and then a 0.6 cm wide sealing adhesive strip was inserted. After 5 mins of tail intravenous injection of drugs, separation spare the common carotid artery segment was ring wrapped by filter paper (1.0 cm×0.5 cm) soaked in 20% FeCl3 solution and sealed with strip seal. After 15 mins, the filter strips was remove. 40 mins later, the blood vessels ligation at both ends of filter paper was ligated. The vascular segment of the paper strip wrapped was precisely cut followed sucked excess blood in blood vessels with a clean filter paper, and wet weight including thrombotic vascular was accurately weighed, then weighed again after removing blood clots. The difference is the quality of the thrombus within the 0.5 cm long vessel segment. In sham operation, FeCl3 immersion filter strips were replaced with normal saline immersion filter strips.

SD rats [3] = assay: Rat clotting time after i.v. injection, PT; type: in vivo; conditions: for Clotting time PT: rat plasma 2 min after injection
Procedure: 40 SPF grade male SD rats (provided by the laboratory animal center of Guangdong Medical College, 300-350 g body weight) were randomly divided into a line group, and rNAPTin-1 low-dose (100 μg·kg^−1), middle-dose (1 mg·kg^−1), high dose group (5 mg·kg^−1), 10 rats each group. 2 min after intravenous injection of various rNAPTin-1, blood was harvested from animal heart, and injected into an anticoagulant tube (3.8% sodium citrate). Animal plasma was separated by centrifugation (1500×g, 10 mins) and was used to measure aPTT and PT.

human fXa = molecular target: T1, human fXa (Homo sapiens, UniProt P00742); assay: Chromogenic assay, fXa; type: biochemical
T1 construct: Human coagulation factors IIa (thrombin), Xa, XIa, XIIa, EGR-fXa; purchased Haematologic Technologies Inc (United States)
T1 sequence (P00742 41-179 limits assumed): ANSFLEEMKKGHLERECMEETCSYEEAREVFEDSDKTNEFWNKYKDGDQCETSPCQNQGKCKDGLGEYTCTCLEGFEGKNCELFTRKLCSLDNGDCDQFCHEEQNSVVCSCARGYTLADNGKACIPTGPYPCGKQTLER
T1 sequence (P00742 235-488 limits assumed): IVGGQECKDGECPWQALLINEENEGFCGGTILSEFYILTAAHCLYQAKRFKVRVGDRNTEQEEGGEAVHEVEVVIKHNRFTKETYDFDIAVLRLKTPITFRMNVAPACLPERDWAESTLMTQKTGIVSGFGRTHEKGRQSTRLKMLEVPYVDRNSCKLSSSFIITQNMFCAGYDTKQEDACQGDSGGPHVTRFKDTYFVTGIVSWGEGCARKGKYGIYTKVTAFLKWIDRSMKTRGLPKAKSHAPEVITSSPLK
Source text: (§1) The recombinant anticoagulant polypeptides in the present invention were expressed in E. coli and purified in our laboratory, of which the activities against coagulation factors were investigated by chromogenic assays. Human coagulation factors IIa (thrombin), Xa, XIa, XIIa, EGR-fXa were products of Haematologic Technologies Inc (United States). Recombinant fVIIa was products of Novo-Nordisk (Denmark). Recombinant soluble tissue factor (sTF) was purchased from Protgen (Beijing, China). The following chromogenic substrates were used for these coagulation factor assays: S2765 for human fXa, S2288 for human fVIIa and fIIa, 52366 for human fXIa and fXIIa, respectively.
(§2) The chromogenic assays were carried out in a total reaction volume of 100 μl in individual wells of a 96-well microtiter plate. 50 μl fIIa, fXa, fXIa, or fXIIa (final concentration: 1 nM) was incubated with 10 μl recombinant anticoagulant polypeptide at various concentrations (or PBS control group) Assays for the detection activity of fVIIa: 50 μl fVIIa+TF (1 μM) and EGR-fXa (final concentration 500 nM) was incubated for 15 mins at 25° C., respectively. After the addition of 40 μl of prewarmed chromogenic substrate to a final concentration of 400 μM, the changes of absorbance at 405 nm were monitored by using an E1x808 kinetic microtiter reader. The data were used to calculate the velocities of response.

human fXIIa = molecular target: T2, human fXIIa (Homo sapiens, UniProt P00748); assay: Chromogenic assay, fXIIa; type: biochemical
T2 construct: Human coagulation factors IIa (thrombin), Xa, XIa, XIIa, EGR-fXa; purchased Haematologic Technologies Inc (United States)
T2 sequence (P00748 373-615 limits assumed): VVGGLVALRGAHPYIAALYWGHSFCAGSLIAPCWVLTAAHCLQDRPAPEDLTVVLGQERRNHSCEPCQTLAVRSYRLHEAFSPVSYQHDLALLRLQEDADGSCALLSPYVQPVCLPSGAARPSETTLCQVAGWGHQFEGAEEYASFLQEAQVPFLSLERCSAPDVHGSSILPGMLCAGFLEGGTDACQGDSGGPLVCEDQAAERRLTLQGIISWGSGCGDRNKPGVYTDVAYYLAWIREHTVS
T2 sequence (P00748 20-372 limits assumed): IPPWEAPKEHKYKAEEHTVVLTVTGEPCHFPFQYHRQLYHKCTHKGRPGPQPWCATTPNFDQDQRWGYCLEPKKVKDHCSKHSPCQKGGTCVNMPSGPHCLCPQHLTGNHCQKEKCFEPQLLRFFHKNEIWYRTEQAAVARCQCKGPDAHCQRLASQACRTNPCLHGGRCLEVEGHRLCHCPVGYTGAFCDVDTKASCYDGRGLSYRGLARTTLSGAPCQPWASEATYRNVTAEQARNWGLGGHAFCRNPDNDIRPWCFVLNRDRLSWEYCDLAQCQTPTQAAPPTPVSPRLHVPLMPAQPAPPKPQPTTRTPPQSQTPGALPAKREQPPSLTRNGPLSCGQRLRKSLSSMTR
Source text: as §1, §2

B1: NAPTin-1 (protein)
chain: NPSCGENERHDECSRKECDPKCKYDGTEEKDDEKPVVCLTRVCYGDCICRDGFLRNKNGACVKAEDCELD
modifications: Sequence derived from Ancylostoma caninum or Synthetic
Q: How did the “Bleeding time” value (BALb/c mice; 100 μg·kg^−1 tail vein) turn out when B1 was run?
A: 8.34 ± 1.7 min

Q: And the “Bleeding time” value (BALb/c mice; 1 mg·kg^−1 tail vein)?
A: 8.30 ± 2.1 min

Q: And the “Bleeding time” value (BALb/c mice; 5 mg·kg^−1 tail vein)?
A: 8.28 ± 2.3 min

Q: What about the “Inhibition rate %” value (SD rats [1]; 0.1 mg/kg i.v.) of the same molecule?
A: 80%

Q: And the Thrombosis rate (SD rats [1]; 0.1 mg/kg i.v.)?
A: 2/10*

Q: And the “Inhibition rate %” value (SD rats [1]; 1.0 mg/kg i.v.)?
A: 100%

Q: What about the Thrombosis rate (SD rats [1]; 1.0 mg/kg i.v.) of the same molecule?
A: 0/10*

Q: And the “Inhibition rate %” value (SD rats [1]; 5.0 mg/kg i.v.)?
A: 100%

Q: What about the Thrombosis rate (SD rats [1]; 5.0 mg/kg i.v.) of the same molecule?
A: 0/10*

Q: What about the “effect on rat venous thrombosis (in words)” value (SD rats [1]; rat, in vivo) of the same molecule?
A: significant antithrombotic effect

Q: What about the “wet weight of thrombus” value (SD rats [2]; 100 μg·kg^−1 i.v.) of the same molecule?
A: 1.5 ± 0.2 mg

Q: And the Inhibition rate % (SD rats [2]; 100 μg·kg^−1 i.v.)?
A: 66.7%

Q: What about the “wet weight of thrombus” value (SD rats [2]; 1 mg·kg^−1 i.v.) of the same molecule?
A: 0.5 ± 0.3 mg

Q: And the Inhibition rate % (SD rats [2]; 1 mg·kg^−1 i.v.)?
A: 88.9%

Q: What about the “wet weight of thrombus (mg)” value (SD rats [2]; 5 mg·kg^−1 i.v.) of the same molecule?
A: 0* mg

Q: And the Inhibition rate % (SD rats [2]; 5 mg·kg^−1 i.v.)?
A: 100%

Q: What about the “Clotting time PT” value (SD rats [3]; 0.1 mg/kg i.v.) of the same molecule?
A: 11.8 ± 0.5

Q: And the “Clotting time PT” value (SD rats [3]; 1.0 mg/kg i.v.)?
A: 12.0 ± 0.3

Q: And the “Clotting time PT” value (SD rats [3]; 5.0 mg/kg i.v.)?
A: 11.5 ± 0.8

Q: What about the “effect on rat PT (in words)” value (SD rats [3]; 0.1-5 mg/kg i.v.) of the same molecule?
A: not prolonged PT

Q: And the “effect on fXa activity (in words)” value (human fXa; 100 nM)?
A: without affecting; also recorded: no significant inhibitory activity

Q: And the “effect on fXa activity (in words)” value (human fXa; 200 nM)?
A: without affecting

Q: And the “effect on fXIIa activity (in words)” value (human fXIIa; 100 nM)?
A: without affecting

Q: And the “effect on fXIIa activity (in words)” value (human fXIIa; 200 nM)?
A: without affecting
